T1: Puf5p RNA-binding domain (Saccharomyces cerevisiae, UniProt P39016 201-600)
T1 sequence: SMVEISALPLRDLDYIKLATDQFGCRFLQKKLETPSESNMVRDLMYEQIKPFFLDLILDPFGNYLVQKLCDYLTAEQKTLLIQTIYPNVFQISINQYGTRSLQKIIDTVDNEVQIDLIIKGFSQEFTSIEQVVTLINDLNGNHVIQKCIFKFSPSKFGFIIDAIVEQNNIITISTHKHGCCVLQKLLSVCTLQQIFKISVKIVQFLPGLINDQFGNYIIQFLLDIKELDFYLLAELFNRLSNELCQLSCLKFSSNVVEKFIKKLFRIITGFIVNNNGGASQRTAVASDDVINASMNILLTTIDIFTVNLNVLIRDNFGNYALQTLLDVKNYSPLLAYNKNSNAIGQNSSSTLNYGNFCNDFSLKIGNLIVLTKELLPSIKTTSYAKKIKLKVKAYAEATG


Biological target: T1, Puf5p RNA-binding domain
Experiment: EMSA; EMSA: 10 mM HEPES pH 7.4, 50 mM NaCl, 1 mM EDTA, 0.1 mg/ml BSA, 0.01% Tween 20, 0.1 mg/ml yeast tRNA, 100 pM RNA, overnight at 4 C

Binder	Kd [nM]
UGUACUAUA (ssRNA) [SMX2 (9)]	28.4
UGUAUUUGUA (ssRNA) [MFA2 (10)]	179
UGUAUAUA (ssRNA) [NRE (8)]	3200
UGUAACUUUUUA (ssRNA) [AMN1 (12)]	106
UGUAAUGAUUA (ssRNA) [AAT2 (11)]	345

Source: publication PMC4570272
